In paper PMC5004148 one finds stoichiometry N data, which are given here for one substance.

Assay [1] addresses transmembrane truncated VP24 (residues 28-208) (White spot syndrome virus (WSSV)). Description: cross-linking; purified VP24 in PBS (around 0.6 mg/ml in 40 ul) with rising glutaraldehyde, room temperature, 4 h; 15% SDS-PAGE, Coomassie blue.
Assay [2] has the same target. The assay is described as follows: crystal structure; X-ray, SAD phasing, 2.4 Å, space group I 2(1) 3; trimer by the crystallographic three-fold axis; 0.1 M Tris-HCl pH 8.5, 2.75 M ammonium acetate, 10 mM ATP as additive, 16 °C.

As usually defined, the stoichiometry N is the number of molecules, sites or subunits per partner or assembly. As for “transmembrane truncated VP24 (residues 28-208) (domain or fragment)”, the stoichiometry N in assay [1] and in assay [2] was 3 throughout.
